How the values were obtained:
[1] = target: KRAS 7-16(G12D) SCT tetramer #2 (human); assay: flow cytometry, tetramer labelling of TCR-transduced donor X CD8+ T cells, Tetramer APC against CD8 ef450 [Continued]
[2] = target: KRAS 7-16(G12V) SCT tetramer #7; assay: as above
[3] = target: T1, KRAS G12V (same sequence in NRAS and HRAS G12V) peptide on HLA-A*11:01 (human); assay: cytokine release
T1 peptide: VVVGAVGVGK

[4] = target: T2, KRAS G12V (same sequence in NRAS and HRAS G12V) peptide on HLA-A*11:01 (human); assay: cytokine release
T2 peptide: VVGAVGVGK

[5] = target: T3, KRAS G12D (same sequence in NRAS and HRAS G12D) peptide on HLA-A*11:01 (human); assay: cytokine release
T3 peptide: VVGADGVGK

[6] = target: T4, KRAS G12D (same sequence in NRAS and HRAS G12D) peptide on HLA-A*11:01 (human); assay: cytokine release
T4 peptide: VVVGADGVGK

[7] = target: T5, KRAS G12V peptide on HLA-A*02:01 (human); assay: multimer staining
T5 peptide: KLVVVGAVGV

[8] = target: HLA-A2 (DM)/KRAS (5-14_G12V)-peptide multimer; assay: flow cytometry, Tet+ gate frequency; A2DM/KRAS G12V 5-14 tetramer at 1:50 [Continued]
[9] = target: HLA-A2 (DM)/KRAS (5-14_G12V)-peptide multimer; assay: flow cytometry, Tet+ gate frequency; A2DM/KRAS G12V 5-14 tetramer at 1:100 [Continued]
[10] = target: HLA-A2 (DM)/KRAS (5-14_G12V)-peptide multimer; assay: flow cytometry, Tet+ gate frequency; A2DM/KRAS G12V 5-14 tetramer at 1:200 [Continued]
[11] = target: HLA-A2 (DM)/KRAS (5-14_G12V)-peptide multimer; assay: flow cytometry, Tet+ gate frequency; A2DM/KRAS G12V 5-14 tetramer at 1:400 [Continued]
[12] = target: A2/KRAS G12V 5-14 (human), A*02:0; assay: flow cytometry, Tet+ gate frequency; A2/KRAS G12V 5-14 tetramer at 1:400; no-tetramer control Tet+ 0

B1: 141_1 TCR (TCR, V domains shown)
V domain 1: AQTVTQSQPEMSVQEAETVTLSCTYDTSESDYYLFWYKQPPSRQMILVIRQEAYKQQNATENRFSVNFQKAAKSFSLKISDSQLGDAAMYFCALKTSYDKVIFGPGTSLSVIP
V domain 2: NAGVTQTPKFQVLKTGQSMTLQCAQDMNHEYMSWYRQDPGMGLRLIHYSVGAGITDQGEVPNGYNVSRSTTEDFPLRLLSAAPSQTSVYFCASSLGAGEWKSPLHFGNGTRLTVTE
Binder B1 has a tetramer gate (share of cells in the gate; unit not given) [1] of 14.8 and a tetramer gate (share of cells in the gate; unit not given) [2] of 4.06.

B2: A11 KRAS TCR_141_1 (TCR, V domains shown)
Valpha: AQTVTQSQPEMSVQEAETVTLSCTYDTSESDYYLFWYKQPPSRQMILVIRQEAYKQQNATENRFSVNFQKAAKSFSLKISDSQLGDAAMYFCALKTSYDKVIFGPGTSLSVIP
Vbeta: NAGVTQTPKFQVLKTGQSMTLQCAQDMNHEYMSWYRQDPGMGLRLIHYSVGAGITDQGEVPNGYNVSRSTTEDFPLRLLSAAPSQTSVYFCASSLGAGEWKSPLHFGNGTRLTVT
B2: no recognition [3]; no recognition [4]; no recognition [5]. B2: recognises [6].

B3: A2 KRAS TCR04 (TCR, V domains shown)
Valpha: AQKVTQAQTEISVVEKEDVTLDCVYETRDTTYYLFWYKQPPSGELVFLIRRNSFDEQNEISGRYSWNFQKSTSSFNFTITASQVVDSAVYFCALMDSSYKLIFGSGTRLLVRP
Vbeta: GAVVSQHPSWVICKSGTSVKIECRSLDFQATTMFWYRQFPKQSLMLMATSNEGSKATYEQGVEKDKFLINHASLTLSTLTVTSAHPEDSSFYICSAFLSGSADTQYFGPGTRLTVL
B3: recognises [7].

B4: A2 KRAS TCR09 (TCR, V domains shown)
Valpha: GESVGLHLPTLSVQEGDNSIINCAYSNSASDYFIWYKQESGKGPQFIIDIRSNMDKRQGQRVTVLLNKTVKHLSLQIAATQPGDSAVYFCAEIFNDYKLSFGAGTTVTVRA
Vbeta: EAQVTQNPRYLITVTGKKLTVTCSQNMNHEYMSWYRQDPGLGLRQIYYSMNVEVTDKGDVPEGYKVSRKEKRNFPLILESPSPNQTSLYFCASSQAGLGNEQFFGPGTRLTVL
B4: recognises [7].

B5: A11 KRAS TCR_220_12 (TCR, V domains shown)
Valpha: AQSVTQLDSHVSVSEGTPVLLRCNYSSSYSPSLFWYVQHPNKGLQLLLKYTSAATLVKGINGFEAEFKKSETSFHLTKPSAHMSDAAEYFCVVSDMVSGYALNFGKGTSLLVTP
Vbeta: DIYQTPRYLVIGTGKKITLECSQTMGHDKMYWYQQDPGMELHLIHYSYGVNSTEKGDLSSESTVSRIRTEHFPLTLESARPSHTSQYLCASSESLYNEQFFGPGTRLTVL
B5: no recognition [3]; no recognition [4]; no recognition [5]. B5: recognises [6].

B6: A2 KRAS TCR12 (TCR, V domains shown)
Valpha: AQSVTQLDSQVPVFEEAPVELRCNYSSSVSVYLFWYVQYPNQGLQLLLKYLSGSTLVESINGFEAEFNKSQTSFHLRKPSVHISDTAEYFCAVTRDDKIIFGKGTRLHILP
Vbeta: DVKVTQSSRYLVKRTGEKVFLECVQDMDHENMFWYRQDPGLGLRLIYFSYDVKMKEKGDIPEGYSVSREKKERFSLILESASTNQTSMYLCASSLQVSGVAGYTFGSGTRLTVV
B6: recognises [7].

B7: TCR_20 (TCR, V domains shown)
V domain 1: DAKTTQPPSMDCAEGRAANLPCNHSTISGNEYVYWYRQIHSQGPQYIIHGLKNNETNEMASLIITEDRKSSTLILPHATLRDTAVYYCIVRLNSGNTPLVFGKGTRLSVIA
V domain 2: EAGVAQSPRYKIIEKRQSVAFWCNPISGHATLYWYQQILGQGPKLLIQFQNNGVVDDSQLPKDRFSAERLKGVDSTLKIQPAKLEDSAVYLCASSPTFPAGDRDTQYFGPGTRLTVLE
For B7, the tetramer gate (share of cells in the gate; unit not given) [1] was 3.48 and the tetramer gate (share of cells in the gate; unit not given) [2] was 3.96.

B8: TCR15 (TCR, V domains shown)
Valpha: QKEVEQNSGPLSVPEGAIASLNCTYSDRGSQSFFWYRQYSGKSPELIMFIYSNGDKEDGRFTAQLNKASQYVSLLIRDSQPSDSATYLCAVNARGNMLTFGGGTRLMVKP
Vbeta: SQTIHQWPATLVQPVGSPLSLECTVEGTSNPNLYWYRQAAGRGLQLLFYSVGIGQISSEVPQNLSASRPQDRQFILSSKKLLLSDSGFYLCAWTLTGFGQPQHFGDGTRLSIL
B8: recognises [3]; no recognition [4]; no recognition [5]. B8: no recognition [6].

B9: TCR13 (TCR, V domains shown)
Valpha: QKEVEQDPGPLSVPEGAIVSLNCTYSNSAFQYFMWYRQYSRKGPELLMYTYSSGNKEDGRFTAQVDKSSKYISLFIRDSQPSDSATYLCAMSASAAGNKLTFGGGTRVLVKP
Vbeta: EADIYQTPRYLVIGTGKKITLECSQTMGHDKMYWYQQDPGMELHLIHYSYGVNSTEKGDLSSESTVSRIRTEHFPLTLESARPSHTSQYLCASSEGLYNEQFFGPGTRLTVL
B9: no recognition [3]; no recognition [4]; recognises [6]. The Tet+ [8] was 58.7, the Tet+ [9] was 45 and the Tet+ [10] was 33.7. The Tet+ [11] was 9.2, the Tet+ [12] was 84.6 and the tetramer gate (share of cells in the gate; unit not given) [1] was 82.8. It also gave a tetramer gate (share of cells in the gate; unit not given) [2] of 5.19.

B10: A2 KRAS TCR05 (TCR, V domains shown)
Valpha: AQSVTQPDIHITVSEGASLELRCNYSYGATPYLFWYVQSPGQGLQLLLKYFSGDTLVQGIKGFEAEFKRSQSSFNLRKPSVHWSDAAEYFCAVGDENTGFQKLVFGTGTRLLVSP
Vbeta: DVKVTQSSRYLVKRTGEKVFLECVQDMDHENMFWYRQDPGLGLRLIYFSYDVKMKEKGDIPEGYSVSREKKERFSLILESASTNQTSMYLCASALRGTYEQYFGPGTRLTVT
B10: recognises [7].

B11: A2 KRAS TCR08 (TCR, V domains shown)
Valpha: GEDVEQSLFLSVREGDSSVINCTYTDSSSTYLYWYKQEPGAGLQLLTYIFSNMDMKQDQRLTVLLNKKDKHLSLRIADTQTGDSAIYFCAERIDSGNTPLVFGKGTRLSVIA
Vbeta: DVKVTQSSRYLVKRTGEKVFLECVQDMDHENMFWYRQDPGLGLRLIYFSYDVKMKEKGDIPEGYSVSREKKERFSLILESASTNQTSMYLCAIEPPTGNEQYFGPGTRLTVT
B11: recognises [7].

B12: A2 KRAS TCR18 (TCR, V domains shown)
Valpha: GEDVEQSLFLSVREGDSSVINCTYTDSSSTYLYWYKQEPGAGLQLLTYIFSNMDMKQDQRLTVLLNKKDKHLSLRIADTQTGDSAIYFCAVLLDNQGGKLIFGQGTELSVKP
Vbeta: DVKVTQSSRYLVKRTGEKVFLECVQDMDHENMFWYRQDPGLGLRLIYFSYDVKMKEKGDIPEGYSVSREKKERFSLILESASTNQTSMYLCASRGLSTDTQYFGPGTRLTVL
B12: recognises [7].

B13: TCR14 (TCR, V domains shown)
Valpha: SQQGEEDPQALSIQEGENATMNCSYKTSINNLQWYRQNSGRGLVHLILIRSNEREKHSGRLRVTLDTSKKSSSLLITASRAADTASYFCATDEGGGADGLTFGKGTHLIIQP
Vbeta: DSGVTQTPKHLITATGQRVTLRCSPRSGDLSVYWYQQSLDQGLQFLIQYYNGEERAKGNILERFSAQQFPDLHSELNLSSLELGDSALYFCASTHGRDSTDTQYFGPGTRLTVL
B13: no recognition [3]; recognises [4]; no recognition [5]. B13: no recognition [6].

B14: A2 KRAS TCR03 (TCR, V domains shown)
Valpha: GEDVEQSLFLSVREGDSSVINCTYTDSSSTYLYWYKQEPGAGLQLLTYIFSNMDMKQDQRLTVLLNKKDKHLSLRIADTQTGDSAIYFCAERTDTDKLIFGTGTRLQVFP
Vbeta: GAGVSQTPSNKVTEKGKYVELRCDPISGHTALYWYRQSLGQGPEFLIYFQGTGAADDSGLPNDRFFAVRPEGSVSTLKIQRTERGDSAVYLCASSPLAANEQFFGPGTRLTVL
B14: recognises [7].

B15: A2 KRAS TCR15 (TCR, V domains shown)
Valpha: GEDVEQSLFLSVREGDSSVINCTYTDSSSTYLYWYKQEPGAGLQLLTYIFSNMDMKQDQRLTVLLNKKDKHLSLRIADTQTGDSAIYFCAEMMDTDKLIFGTGTRLQVFP
Vbeta: EAGVAQSPRYKIIEKRQSVAFWCNPISGHATLYWYQQILGQGPKLLIQFQNNGVVDDSQLPKDRFSAERLKGVDSTLKIQPAKLEDSAVYLCASSLPSGNEQFFGPGTRLTVL
B15: recognises [7].

B16: A2 KRAS TCR19 (TCR, V domains shown)
Valpha: AQSVSQHNHHVILSEAASLELGCNYSYGGTVNLFWYVQYPGQHLQLLLKYFSGDPLVKGIKGFEAEFIKSKFSFNLRKPSVQWSDTAEYFCAVNDPSDYKLSFGAGTTVTVRA
Vbeta: DGGITQSPKYLFRKEGQNVTLSCEQNLNHDAMYWYRQDPGQGLRLIYYSQIVNDFQKGDIAEGYSVSREKKESFPLTVTSAQKNPTAFYLCASRSDRNEQFFGPGTRLTVL
B16: recognises [7].

B17: A2 KRAS TCR11 (TCR, V domains shown)
Valpha: DQQVKQNSPSLSVQEGRISILNCDYTNSMFDYFLWYKKYPAEGPTFLISISSIKDKNEDGRFTVFLNKSAKHLSLHIVPSQPGDSAVYFCAAISLTSGTYKYIFGTGTRLKVLA
Vbeta: DTEVTQTPKHLVMGMTNKKSLKCEQHMGHRAMYWYKQKAKKPPELMFVYSYEKLSINESVPSRFSPECPNSSLLNLHLHALQPEDSALYLCASSQDLGTVYEQYFGPGTRLTVT
B17: recognises [7].

— patent publication US20250114433A1 (published 2025)
